The values that follow come from patent US20260272979A1 (CHINEO MEDICAL TECHNOLOGY, published 2026).

For orientation: koff means a measure of how fast the partners let go of each other. Broadly, the kon is the rate constant with which the complex forms. The term Kd denotes the concentration at which binding is half-saturated. A higher Kd goes with a looser complex.

T1: PD-L2 fuse-expressed with an Fc derived from human IgG1 (human, UniProt Q9BQ51 20-219, limits assumed)
T1 construct: Bought reagent; also called hPD-L2-Fc; not shown: Fc of human IgG1
T1 sequence (looked up): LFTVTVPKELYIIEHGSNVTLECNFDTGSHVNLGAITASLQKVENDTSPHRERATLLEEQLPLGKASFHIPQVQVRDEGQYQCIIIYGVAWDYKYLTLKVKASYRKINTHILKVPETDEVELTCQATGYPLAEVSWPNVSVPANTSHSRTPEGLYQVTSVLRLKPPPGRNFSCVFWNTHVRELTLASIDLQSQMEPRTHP

B1: PD-1 variant PD1_56#-16 on cells (receptor)
chain: PGWFLDSPDRPWNPPTFSPALLVVTEGDNATFTCSFSNTSESFVLNWYRMSPSNQTDKLAAFPEDFFTVSQDCRFRVTQLPNGRDFHMSVVRARRNDSGTYLCGAISLSTPVWIKESLRAELRVTERRAEVPTAHPSPSPRPAGQFQTLVVGVVGGLLGSLVLLVWVLAVIRSKRSRLLHSDYMNMTPRRPGPTRKHYQPYAPPRDFAAYRS
notes: On 293T cells and human T cells, from pLV2-PD1-CD28; signal peptide 1-20 left out; also called Mut5
B2: PD-1 variant PD1_56#-108 on cells (receptor)
chain: B1 chain with F66R, F67I, T68N, V69R
notes: On 293T cells and human T cells, from pLV2-PD1-CD28; signal peptide 1-20 left out; also called Mut6
B3: Seq No. 2-RFc (PD-1 variant PD1_56# fused to rabbit IgG Fc) (Fc fusion)
chain: PGWFLDSPDRPWNPPTFSPALLVVTEGDNATFTCSFSNTSESFVLNWYRMSPSNQTDKLAAFPEDRSQPGQDCRFRVTQLPNGRDFHMSVVRARRNDSGTYLCGAISLSTPVWIKESLRAELRVTERRAEVPTAH
notes: Signal peptide 1-20 left out; also called variant 1; Mut1/56#; not shown: rabbit IgG Fc (RFc) of vector pcDNA3.4-RFc
B4: Seq No. 5-RFc (PD-1 variant PD1_56#-15 fused to rabbit IgG Fc) (Fc fusion)
chain: B3 chain with R66F, S67R, Q68N, P69C, G70T
notes: Signal peptide 1-20 left out; also called variant 4; Mut4/56#-15; not shown: rabbit IgG Fc (RFc) of vector pcDNA3.4-RFc
B5: Seq No. 4-RFc (PD-1 variant PD1_56#-3 fused to rabbit IgG Fc) (Fc fusion)
chain: B3 chain with E64W, D65M, R66F, S67C, Q68F
notes: Signal peptide 1-20 left out; several higher bands in non-reducing SDS-PAGE; also called variant 3; Mut3/56#-3; not shown: rabbit IgG Fc (RFc) of vector pcDNA3.4-RFc
B6: Seq No. 3-RFc (PD-1 variant PD1_56#-2 fused to rabbit IgG Fc) (Fc fusion)
chain: B3 chain with E64F, D65L, R66F, S67N, Q68L
notes: Signal peptide 1-20 left out; several higher bands in non-reducing SDS-PAGE; also called variant 2; Mut2/56#-2; not shown: rabbit IgG Fc (RFc) of vector pcDNA3.4-RFc
B7: Seq No. 7-RFc (PD-1 variant PD1_56#-108 fused to rabbit IgG Fc) (Fc fusion)
chain: B3 chain with S67I, Q68N, P69R, G70S
notes: Signal peptide 1-20 left out; also called variant 6; not shown: rabbit IgG Fc (RFc) of vector pcDNA3.4-RFc
B8: Seq No. 6-RFc (PD-1 variant PD1_56#-16 fused to rabbit IgG Fc) (Fc fusion)
chain: B3 chain with R66F, S67F, Q68T, P69V, G70S
notes: Signal peptide 1-20 left out; several higher bands in non-reducing SDS-PAGE; also called variant 5; PD1 variant 5 (56#-16); not shown: rabbit IgG Fc (RFc) of vector pcDNA3.4-RFc
B9: Toripalimab (antibody, V domains shown)
VH: QGQLVQSGAEVKKPGASVKVSCKASGYTFTDYEMHWVRQAPIHGLEWIGVIESETGGTAYNQKFKGRVTITADKSTSTAYMELSSLRSEDTAVYYCAREGITTVATTYYWYFDVWGQGTTVTVSS
VL: DVVMTQSPLSLPVTLGQPASISCRSSQSIVHSNGNTYLEWYLQKPGQSPQLLIYKVSNRFSGVPDRFSGSGSGTDFTLKISRVEAEDVGVYYCFQGSHVPLTFGQGTKLEIKR

Test [1] deals with wild-type human PD-1 (hPD-1) on cells (human). As to the kind of experiment: cell-based or functional assay.
Test [2] has as its target Seq No. 3-RFc (PD-1 variant PD1_56#-2 fused to rabbit IgG Fc) (human; rabbit) (UniProt Q15116). The test is described as follows: SPR Biacore T200; antibody stationary phase. A general note: SPR reads the build-up and loss of mass on a sensor chip optically.
Test [3] concerns the target Seq No. 5-RFc (PD-1 variant PD1_56#-15 fused to rabbit IgG Fc) (human; rabbit) (UniProt Q15116). The test is described as follows: SPR Biacore T200; antibody stationary phase.
Test [4] concerns the target Seq No. 2-RFc (PD-1 variant PD1_56# fused to rabbit IgG Fc) (human; rabbit) (UniProt Q15116). The test is described as follows: SPR Biacore T200; antibody stationary phase.
In test [5] the target is Seq No. 6-RFc (PD-1 variant PD1_56#-16 fused to rabbit IgG Fc) (human; rabbit) (UniProt Q15116). The test is described as follows: SPR Biacore T200; antibody stationary phase.
Test [6] concerns the target Seq No. 1-RFc (wild-type PD-1 fused to rabbit IgG Fc) (human; rabbit) (UniProt Q15116). As to the kind of experiment: SPR Biacore T200; antibody stationary phase.
In test [7] the target is Seq No. 4-RFc (PD-1 variant PD1_56#-3 fused to rabbit IgG Fc) (human; rabbit) (UniProt Q15116). As to the kind of experiment: SPR Biacore T200; antibody stationary phase.
Test [8] concerns the target Seq No. 7-RFc (PD-1 variant PD1_56#-108 fused to rabbit IgG Fc) (human; rabbit) (UniProt Q15116). The test is described as follows: SPR Biacore T200; antibody stationary phase.
The target of test [9] is Seq No. 3-RFc (PD-1 variant PD1_56#-2 fused to rabbit IgG Fc) (human; rabbit) (UniProt Q15116). As to the kind of experiment: SPR Biacore T200.
The target of test [10] is Seq No. 5-RFc (PD-1 variant PD1_56#-15 fused to rabbit IgG Fc) (human; rabbit) (UniProt Q15116). The test is described as follows: SPR Biacore T200.
For test [11], the target named is Seq No. 2-RFc (PD-1 variant PD1_56# fused to rabbit IgG Fc) (human; rabbit) (UniProt Q15116). As to the kind of experiment: SPR Biacore T200.
Test [12] concerns the target Seq No. 6-RFc (PD-1 variant PD1_56#-16 fused to rabbit IgG Fc) (human; rabbit) (UniProt Q15116). The test is described as follows: SPR Biacore T200.
Test [13] has as its target Seq No. 1-RFc (wild-type PD-1 fused to rabbit IgG Fc) (human; rabbit) (UniProt Q15116). As to the kind of experiment: SPR Biacore T200.
Test [14] addresses Seq No. 4-RFc (PD-1 variant PD1_56#-3 fused to rabbit IgG Fc) (human; rabbit) (UniProt Q15116). The test is described as follows: SPR Biacore T200.
Test [15] concerns the target Seq No. 7-RFc (PD-1 variant PD1_56#-108 fused to rabbit IgG Fc) (human; rabbit) (UniProt Q15116). As to the kind of experiment: SPR Biacore T200.
The target of test [16] is T2, PD-L1 fuse-expressed with an Fc derived from human IgG1 (human, UniProt Q9NZQ7 19-239).
T2 construct: Bought reagent; also called PD-L1-Fc; hPD-L1-Fc; not shown: Fc of human IgG1
T2 sequence (Q9NZQ7 19-239 limits assumed): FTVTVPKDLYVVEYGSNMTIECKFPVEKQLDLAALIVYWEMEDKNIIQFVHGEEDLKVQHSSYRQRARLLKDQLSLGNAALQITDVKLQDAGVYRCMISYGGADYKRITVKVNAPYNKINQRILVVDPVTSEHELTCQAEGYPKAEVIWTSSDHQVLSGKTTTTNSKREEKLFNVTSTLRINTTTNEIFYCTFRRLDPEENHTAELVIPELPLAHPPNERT
The test is described as follows: flow cytometry, human T cells. (In flow cytometry, cells or beads pass a laser one at a time.)

The target in test [17] is T1, PD-L2 fuse-expressed with an Fc derived …. The test is described as follows: flow cytometry, human T cells.
The target of test [18] is T2, PD-L1 fuse-expressed with an Fc derived …. As to the kind of experiment: SPR Biacore T200; PD1-RFc mobile phase.
Test [19] concerns the target T1, PD-L2 fuse-expressed with an Fc derived …. The test is described as follows: SPR Biacore T200; PD1-RFc mobile phase.
The target in test [20] is T2, PD-L1 fuse-expressed with an Fc derived …. The test is described as follows: SPR Biacore T200.
Test [21] concerns the target T1, PD-L2 fuse-expressed with an Fc derived …. The test is described as follows: SPR Biacore T200.
Test [22] addresses B3. As to the kind of experiment: SPR Biacore T200.

Residue numbers refer to the chain shown, from its start.

With Tilelizumab (antibody), in test [1], the IL-2 concentration (pg/ml) at 0.8 nM turned out to be 432 pg/mL. Further, the IL-2 concentration (pg/ml) at 1.6 nM in test [1] turned out to be 440 pg/mL. Further, in [1], the IL-2 concentration (pg/ml) at 3.2 nM turned out to be 440 pg/mL. The molecule further had an IL-2 concentration (pg/ml) at 6.4 nM in test [1] of 56.1 pg/mL. For the same molecule, in test [1], the IL-2 concentration (pg/ml) at 12.8 nM was 36.9 pg/mL. The molecule further had an IL-2 concentration (pg/ml) at 25.6 nM in test [1] of 47.7 pg/mL. In test [1], this molecule registered an IL-2 concentration (pg/ml) at 51.2 nM of 80.5 pg/mL. In test [1], this molecule displayed an IL-2 concentration (pg/ml) at 102.4 nM of 126 pg/mL. Besides, the koff in test [2] is 0.00105 s⁻¹; in test [3], 0.0003 s⁻¹; in test [4] it was 0.000174 s⁻¹; in test [5] it was 0.000836 s⁻¹; in test [6], 4.21e-05 s⁻¹; in test [7], 0.00203 s⁻¹. This molecule showed a koff in [8] of 0.000109 s⁻¹. Besides, the kon in test [2] came out at 588000 M⁻¹ s⁻¹; in test [3], 530000 M⁻¹ s⁻¹; in test [4] it was 2.05e+06 M⁻¹ s⁻¹; in test [5], 2.66e+06 M⁻¹ s⁻¹; in [6] it was 3.12e+06 M⁻¹ s⁻¹; in test [7] it was 691000 M⁻¹ s⁻¹. In addition, in test [8], the kon was 2.21e+06 M⁻¹ s⁻¹. The Kd was determined as 1.78 nM in [9]; 0.567 nM in [10]; 0.085 nM in test [11]; 0.315 nM in test [12]; 0.0135 nM in test [13]; 2.94 nM in test [14]. The same molecule had a Kd in [15] of 0.0492 nM.

With B1, the binding result in test [16] and in [17] was “binds” throughout.

B2: the binding result in [16] and in test [17] was “binds” in each case.

Turning to B3, the results for the koff in test [18] and in test [19] were 0.00129 s⁻¹ and 0.00657 s⁻¹, respectively. In addition, the values for the kon in [18] and in test [19] were 2.82e+06 M⁻¹ s⁻¹ and 5.6e+06 M⁻¹ s⁻¹, respectively. The Kd in [20] was found to be 0.457 nM; in test [21], 1.17 nM.

On to B4, for which the off-rate (koff) stood at 0.00343 s⁻¹ in [18] and 0.0096 s⁻¹ in test [19]. For the same molecule, the kon in [18] turned out to be 1.52e+06 M⁻¹ s⁻¹; in test [19], 2.12e+06 M⁻¹ s⁻¹. Also, the Kd worked out at 2.25 nM in test [20] and 4.53 nM in test [21].

With B5, the results for the koff in [18] and in test [19] were 0.00266 s⁻¹ and 0.0019 s⁻¹, respectively. In addition, the results for the kon in test [18] and in test [19] were 67400 M⁻¹ s⁻¹ and 6420 M⁻¹ s⁻¹, respectively. Moreover, the Kd was 39.6 nM in [20] and 296 nM in test [21].

In the case of B6, in test [19], the koff worked out at 1.25e-05 s⁻¹ and the kon turned out to be 4.22e+06 M⁻¹ s⁻¹. Binding in [20] was characterised by a dissociation constant (Kd) of 4.12 nM. Further, the Kd in [21] was determined as 0.00296 nM.

With B7, the koff in test [18] came out at 0.000771 s⁻¹; in test [19] it was 0.00356 s⁻¹. The kon in [18] was found to be 2.01e+06 M⁻¹ s⁻¹; in test [19] it was 1.06e+07 M⁻¹ s⁻¹. The results for the Kd in test [20] and in test [21] were 0.384 nM and 0.336 nM, respectively.

B8: the koff is 0.00153 s⁻¹ in test [18] and 0.00483 s⁻¹ in [19]. In addition, the association rate constant (kon) is 2.32e+06 M⁻¹ s⁻¹ in test [18] and 6.05e+06 M⁻¹ s⁻¹ in test [19]. Also, the Kd was found to be 0.657 nM in [20] and 0.798 nM in [21].

On to B9, for which the Kd in test [22] is 0.395 nM.
